# From publication PMC10786891, “Massively parallel profiling of RNA-targeting CRISPR-Cas13d”
# Changes are numbered by the printed parent chain. Names and notes keep the numbering of the source.
# T1: EsCas13d, nuclease-dead (Eubacterium siraeum, UniProt B0MS50, R295A;H300A;R849A;H854A)
# T1 sequence: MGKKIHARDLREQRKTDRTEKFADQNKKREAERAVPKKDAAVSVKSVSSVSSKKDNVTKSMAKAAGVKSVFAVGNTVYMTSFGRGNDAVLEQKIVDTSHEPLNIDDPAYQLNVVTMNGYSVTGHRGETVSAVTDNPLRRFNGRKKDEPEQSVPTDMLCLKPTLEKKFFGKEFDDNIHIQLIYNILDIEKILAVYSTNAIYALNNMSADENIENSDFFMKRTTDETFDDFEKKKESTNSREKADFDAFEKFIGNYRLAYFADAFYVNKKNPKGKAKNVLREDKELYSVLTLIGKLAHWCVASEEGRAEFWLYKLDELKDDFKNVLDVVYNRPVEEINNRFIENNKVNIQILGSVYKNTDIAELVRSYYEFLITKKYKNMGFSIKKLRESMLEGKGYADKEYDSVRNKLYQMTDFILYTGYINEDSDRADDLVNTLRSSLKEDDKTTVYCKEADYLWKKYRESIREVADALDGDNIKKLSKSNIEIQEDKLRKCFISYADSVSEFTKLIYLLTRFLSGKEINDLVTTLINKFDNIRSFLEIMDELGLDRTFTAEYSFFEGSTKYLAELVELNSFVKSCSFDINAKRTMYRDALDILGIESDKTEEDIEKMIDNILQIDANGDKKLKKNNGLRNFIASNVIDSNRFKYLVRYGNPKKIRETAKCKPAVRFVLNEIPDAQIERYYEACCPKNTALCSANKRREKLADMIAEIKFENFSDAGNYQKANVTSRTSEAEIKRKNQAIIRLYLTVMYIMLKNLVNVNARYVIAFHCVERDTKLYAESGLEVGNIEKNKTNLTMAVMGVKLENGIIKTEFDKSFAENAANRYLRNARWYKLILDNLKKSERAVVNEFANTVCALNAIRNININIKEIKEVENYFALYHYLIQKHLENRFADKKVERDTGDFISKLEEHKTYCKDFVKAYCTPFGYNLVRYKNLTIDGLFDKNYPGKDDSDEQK
# B1: target 1 C7A,A18U (mixed)
# RNA 1: CACCCGUGCAAAAAUGCAGGGGUCUAAAACUGAGCGGAUAACCUCUCUAUGG
# RNA 2: GGGAAUGGAUCCACAUCUACGAAUUCGUACCAUUGAGAGGUUAUACGCUCACCGAGAUCGGAAGAGCACACGU
# B2: target 1 insU 3' of 5,insU 3' of 2 (mixed)
# RNA 1: B1 RNA 1
# RNA 2: GGGAAUGGAUCCACAUCUACGAAUUCGUACCAUAGAGAGGUUAUCCGUCUCUACCGAGAUCGGAAGAGCACACGU
# B3: target 1 insC 3' of 14,insC 3' of 10 (mixed)
# RNA 1: B1 RNA 1
# RNA 2: GGGAAUGGAUCCACAUCUACGAAUUCGUACCAUAGAGACGGUUCAUCCGCUCACCGAGAUCGGAAGAGCACACGU
# B4: target 1 insU 3' of 21,insG 3' of 20 (mixed)
# RNA 1: B1 RNA 1
# RNA 2: B3 RNA 2 with A32U, U33A, A34G, G35U, C39G, G40A, U42G, C44U
# B5: target 1 insG 3' of 11,insU 3' of 6 (mixed)
# RNA 1: B1 RNA 1
# RNA 2: B3 RNA 2 with C39G, G41U, U42G, C44A, A45U, U46C, C48U
# B6: target 1 insC 3' of 15,insA 3' of 7 (mixed)
# RNA 1: B1 RNA 1
# RNA 2: B3 RNA 2 with A38C, C39A, C44A, A45U, U46C, C47A
# B7: target 1 insU 3' of 22,insU 3' of 20 (mixed)
# RNA 1: B1 RNA 1
# RNA 2: B3 RNA 2 with C31U, A32C, U33A, A34U, G35U, C39G, G40A, U42G, C44U
# B8: target 1 G5C,G17U (mixed)
# RNA 1: B1 RNA 1
# RNA 2: B1 RNA 2 with U34A, G35U, A45C, G47C
# B9: target 1 C2A,A9G (mixed)
# RNA 1: B1 RNA 1
# RNA 2: B1 RNA 2 with U34A, A43G, A45C, C50A
# B10: target 1 insU 3' of 14,insC 3' of 9 (mixed)
# RNA 1: B1 RNA 1
# RNA 2: B3 RNA 2 with C39U, C44A, A45C
# B11: target 1 insA 3' of 10,insA 3' of 10 (mixed)
# RNA 1: B1 RNA 1
# RNA 2: B3 RNA 2 with C39G, G41U, U43A, C44A
# B12: target 1 insA 3' of 19,insA 3' of 6 (mixed)
# RNA 1: B1 RNA 1
# RNA 2: B3 RNA 2 with G35A, A36G, G37A, A38G, C39A, C44A, A45U, U46C, C48A
# B13: target 1 insU 3' of 21,insA 3' of 12 (mixed)
# RNA 1: B1 RNA 1
# RNA 2: GGGAAUGGAUCCACAUCUACGAAUUCGUACCUAUAGAGAGGAUUAUCCGCUCACCGAGAUCGGAAGAGCACACGU
# B14: target 1 insG 3' of 11,insA 3' of 5 (mixed)
# RNA 1: B1 RNA 1
# RNA 2: B3 RNA 2 with C39G, G41U, U42G, C44A, A45U, U46C, C48G, G49A
# B15: target 1 insC 3' of 22,insA 3' of 15 (mixed)
# RNA 1: B1 RNA 1
# RNA 2: B13 RNA 2 with U32C, G40A, A42G
# B16: target 1 insU 3' of 6,insA 3' of 3 (mixed)
# RNA 1: B1 RNA 1
# RNA 2: B2 RNA 2 with G47U, U48G, C51A, U52C
# B17: target 1 C7A,A14U (mixed)
# RNA 1: B1 RNA 1
# RNA 2: B1 RNA 2 with U34A, A38U
# B18: target 1 C6U,G13A (mixed)
# RNA 1: B1 RNA 1
# RNA 2: B1 RNA 2 with U34A, G39A, A45C, C46U
# B19: target 1 insG 3' of 3,insG 3' of 3 (mixed)
# RNA 1: B1 RNA 1
# RNA 2: B2 RNA 2 with U48C, C49U, U50G, C51G, U52C
# B20: target 1 A1C,U8G (mixed)
# RNA 1: B1 RNA 1
# RNA 2: B1 RNA 2 with U34A, U44G, A45C, A51C
# B21: target 1 U10A,G17U (mixed)
# RNA 1: B1 RNA 1
# RNA 2: B1 RNA 2 with U34A, G35U, U42A, A45C
# B22: target 1 insG 3' of 14,insU 3' of 5 (mixed)
# RNA 1: B1 RNA 1
# RNA 2: B3 RNA 2 with C39G, C44A, A45U, U46C, C48G, G49U
# B23: target 1 insU 3' of 9,insU 3' of 4 (mixed)
# RNA 1: B1 RNA 1
# RNA 2: B2 RNA 2 with C45U, G47C, U48G, C51U, U52C
# B24: target 1 U11C,C22A (mixed)
# RNA 1: B1 RNA 1
# RNA 2: B1 RNA 2 with C30A, U34A, U41C, A45C
# B25: target 1 U11G,G15A (mixed)
# RNA 1: B1 RNA 1
# RNA 2: B1 RNA 2 with U34A, G37A, U41G, A45C
# B26: target 1 insA 3' of 17,insG 3' of 7 (mixed)
# RNA 1: B1 RNA 1
# RNA 2: B3 RNA 2 with G37A, A38G, C39A, C44A, A45U, U46C, C47G
# B27: target 1 A1G,U8G (mixed)
# RNA 1: B1 RNA 1
# RNA 2: B1 RNA 2 with U34A, U44G, A45C, A51G
# B28: target 1 C4A,A9C (mixed)
# RNA 1: B1 RNA 1
# RNA 2: B1 RNA 2 with U34A, A43C, A45C, C48A
# B29: target 1 U3G,C4U (mixed)
# RNA 1: B1 RNA 1
# RNA 2: B1 RNA 2 with U34A, A45C, C48U, U49G
# B30: target 1 insU 3' of 7,insC 3' of 3 (mixed)
# RNA 1: B1 RNA 1
# RNA 2: B2 RNA 2 with C46U, G47C, U48G, U52C
# B31: target 1 insU 3' of 4,insU 3' of 4 (mixed)
# RNA 1: B1 RNA 1
# RNA 2: B2 RNA 2 with U48C, C49U, C51U, U52C
# B32: target 1 A9G,U10A (mixed)
# RNA 1: B1 RNA 1
# RNA 2: B1 RNA 2 with U34A, U42A, A43G, A45C
# B33: target 1 C4G,U19A (mixed)
# RNA 1: B1 RNA 1
# RNA 2: B1 RNA 2 with U33A, U34A, A45C, C48G
# B34: target 1 U8C,U10G (mixed)
# RNA 1: B1 RNA 1
# RNA 2: B1 RNA 2 with U34A, U42G, U44C, A45C
# Molecular target: T1, EsCas13d, nuclease-dead
# Experiment: crRNA (strand 1, pre-loaded); Mg2+; 40 mM Tris-HCl pH 7.5, 150 mM NaCl, 6 mM MgCl2, 1 mM DTT, 0.1% Tween-20, 0.2 mg/ml BSA; 25 C; 10 min per concentration, then washed
# Conditions: tags: His6-TwinStrep-SUMO cleaved; N-terminal SNAP kept (SNAP-Surface 488); label: 3' end held by stalled T7 RNA polymerase
row,Binder,Kd [nM]
1,B1,36.4 ± 2.8
2,B2,14.8 ± 1.3
3,B3,55 ± 22
4,B4,40 ± 11
5,B5,62 ± 8
6,B6,12.6 ± 1
7,B7,63 ± 6
8,B8,28.1 ± 2
9,B9,11.7 ± 0.9
10,B10,46 ± 4
11,B11,7.81 ± 0.3
12,B12,23.2 ± 0.9
13,B13,63 ± 9
14,B14,26.5 ± 2.9
15,B15,10.9 ± 0.8
16,B16,8.07 ± 0.3
17,B17,39 ± 3.5

row,Binder,Kd [nM]
1,B18,9 ± 1.1
2,B19,5.5 ± 0.5
3,B20,22.4 ± 1.7
4,B21,37.2 ± 3.2
5,B22,29.6 ± 2.1
6,B23,14.3 ± 1.2
7,B24,21.3 ± 1.5
8,B25,59 ± 7
9,B26,11.5 ± 0.6
10,B27,24.5 ± 1.8
11,B28,7.1 ± 0.7
12,B29,7.2 ± 0.6
13,B30,15.6 ± 0.7
14,B31,9.4 ± 0.5
15,B32,15.5 ± 0.6
16,B33,51 ± 18
17,B34,13.5 ± 0.9
